From the DeepSol protein solubility set

test: soluble on expression in E. coli; label from the status in PepcDB or PDB records

Sequence | soluble on expression in E. coli
MGSDKIHHHHHHMSQHVLLNSIEHKDVKVMTHRSAALGDNLWYSVTFPQEFRSVQAHYPIFFHKDTATGQFYAVALFGFQQNDNVFLSDQGWSASYVPLTVRRQPFLIGQQTVLEDGVERQQRVIHVDLDHPRVSETEGEALFLPYGGNTPLLDEVGEILEVIHHGLQDGQRFVDALIEHQLLESFTLDIELDNGQKNQMIGFYTINEETLAGLSADALAKLHQQGYLQAIYMTLASQSNVRDLLNLKNAQG | not soluble
MADTKAKLTLNGDTAVELDVLKGTLGQDVIDIRTLGSKGVFTFDPGFTSTASCESKITFIDGDEGILLHRGFPIDQLATDSNYLEVCYILLNGEKPTQEQYDEFKTTVTLHTMIHEQITRLFHAFRRDSHPMAVMCGITGALAAFYHDSLDVNNPRHREIAAFRLLSKMPTMAAMCYKYSIGQPFVYPRNDLSYAGNFLNMMFSTPCEPYEVNPILERAMDRILILHADHEQNASTSTVRTAGSSGANPFACIAAGIASLWGPAHGGANEAALKMLEEISSVKHIPEFFRRAKDKNDSFRLMGFGHRVYKNYDPRATVMRETCHEVLKELGTKDDLLEVAMELENIALNDPYFIEKKLYPNVDFYSGIILKAMGIPSSMFTVIFAMARTVGWIAHWSEMHSDGMKIARPRQLYTGYEKRDFKSDIKR | soluble
MSLKPVMIIQFSASEGPGHFGDFLAGEHIPFQVLRMDRSDPLPAEIRDCSGLAMMGGPMSANDDLPWMPTLLALIRDAVAQRVPVIGHCLGGQLLAKAMGGEVTDSPHAEIGWVRAWPQHVPQALEWLGTWDELELFEWHYQTFSIPPGAVHILRSEHCANQAYVLDDLHIGFQCHIEMQAHMVREWCSISPEELKGGAEADPAQPMVQSAVEILRDLDVRIATLNRWAEHVYARWIKGLQREGHHHHHH | soluble
MGDSEIYVSLDIGTASVKVIIAEMADDRLNIIGVGNVESSGIKKGIIIDIDKTVESIKKAIEQAERMVGVEISQVIVGVVSSQVHLEACRGIVAVGSENREITDEDVWNVMDAAQVVPLSPEREIINTIPDQFVVDGLTGITDPRGMIGVRLEMEGTLITGSKTILHNTLRCVERAGLEISDIALQPLAEASISLSEDDKEFGTALVNIGAGTTTVSVFEQGRLTYTGVIPVGGDNITKDLSLGLNTSTANADRVKLEHGYAFYDDASPDEVFAIDVIGSDQKQHFTQVEVADIIEARMEEIFQLVVEELNRVGKTHLPGGYVLTGGSMAIPGAIDLAGKTLAAHVRLAIPDYIGVREPSFTTAVGLIKYAYQMAELEGRDVSSTASEPRYDDEAPKQPKQKPKKSDDEKVSTKMKNFFGAFFE | not soluble
MAGGGNFIARVISYVANEFIVNGLANSHAFQRFAVRTSKRIENLSKMAAENREKVAQQMEEFAKNIDVIHEETLIILVWNLKTSVNHMGQLK | not soluble
MSLTNLDFHIVKRIRQRIAQGGDNAALKHKQNGQWQAINWHQFGEQLDELSMALLAQGIGVQDKIAIFSNNMPRWTIADFAALQIRAVTVPIYPTNTPEQAAYILQNADVKVVFVGEQAQFDAALSQFEQCPELRLIVAMNANIDLKQASCAMHWDEFVAQSHHQDRAPLDALIEQANYDDLFTLIYTSGTTGTPKGVMLDYRNIGAQLEGHDQRLNLTQEDVSLCFLPLSHVFERAWTAYVLYKGATNCYLQDVAHVREALAEVRPTVMCAVPRFYEKIFSAIHEKVVKAPLVRKVLFTWAVNMGAKMAVCRQQQRQPSWMLKQSHQFADKLVLSKLRALLGGRINFMPCGGAKLDETIGRFFHAIGINVKLGYGMTETTATVSCWDDHCFNPDSIGLSMPGAQVKIGENNEILVRGPMVMRGYYKLDKETTESFDEQGFLKTGDAGHIDENGNLFITDRIKELMKTSGGKYIAPQVIEGAIGKDHFIEQIAVIADTRKFVSALIVPCFDSLEEYAKELNIKYHDRLELIKHSQVLEMFEKRVNELQKELAKFEQVKKFRLLPKAFSMDSGELTPTQKLRREGHHHHHH | soluble
MTYDYVIVGGGIVGVSTGWQLKRRYPEKSVLLIEKEAGFSRHQTGHNSGVIHAGVYYAPGSLKADFCKRGVERTLAFCAQHNIPVENCGKLLVATNEQELERMHALYDRCLQNQIDVEKLDAAQLKLAEPNIRGLGAILVKATSIVNYRLVTEKMAEAFMQLGGDVKIGTEVVGLEETPSSITLTCQQKNQRVSYQAKFLVTCSGLMADRLTKMLGLPTDFQIIPYRGEYYRLAPKHNQVVRHLIYPIPDPELPFLGVHLTRMIDGCVTVGPNAVQGFKREGYGKWNVSLRDVWEMVCFPGFWKVSAKHFKTGMVEMKNSWWKAGYLQLVRKYCPSIELTDLEPYPAGIRAQAVLSDGTLVHDFLFAESPRSLHVCNAPSPAATSAMPIGEYLCDKIAEKSLALEHHHHHH | soluble
MAGDTTITVVGNLTADPELRFTPSGAAVANFTVASTPRMFDRQSGEWKDGEALFLRCNIWREAAENVAESLTRGSRVIVTGRLKQRSFETREGEKRTVVEVEVDEIGPSLRYATAKVNKASRSGGGGGGFGSGGGGSRQSEPKDDPWGSAPASGSFSGADDEPPF | soluble
MGSDKIHHHHHHMERLQALEAWAARQLGQETVDIAPASADASFRRYFRVTAKGRDYIVMDAPPAHEDCGPFIAVARLFGDAGVHVPEVLAQDLDQGFLLLTDLGHTTYLSALNESTARELYLAANDALIRIQLASRPGVLPDYDRALLTRELMLFPEWYVAKHLGVELNAAQRATLDTVFERLLTNNLAQPQVYVHRDWHSRNLMVSDPNPGILDFQDAVFGPITYDLASIYRDAYIQWDEERQLDWVIRYWEKARAARLPVAADFGDFWRDFEWMGAQRHLKVLGIFARLYHRDGKDGYLKDMPLVMHYLRSVCGRYDELKPLLLLLDALQDRQPQAGYTF | not soluble
MAHHHHHHMDSPTEFSCGTQWDDDRRGEEPLLPELTLHGCGLRNLSLIVRGAQGAVYSAHDENGNRFAVKRLFTQRSDFGIRGVSEGALREATLLTLVRQEMEKLVHDTAFDVVRLQGVVEAPYKELCLILEYCSLDLSQVVVKSKRHTRSFPLVAEGPQVRCPVLSNMGVVRYLLRGILQILNNLHVNCRIIHRDVKLSNFLVRGDGSVRLSDFGSARLLHETVEEKEAAECVTSDPQDEDEVDCSDPFSHSCEGYTPAAQRTTLIYQAPECLLGERTYTTAVDVWAVGIVFAEILLQRHLFRSVNELTLISDIWRLLGTPSTKGEDPNIQGTNGVTFAAPTEPTVDVKFNDDIVSPEGRDLLKKMLEVDPKKRVTAADALRHSFLTSVDAQLSLKEAPALWREKVKECLEGGTQAVPMGAPFLALDDDEEEEEEEEDVDMNMATL | not soluble
MGSDKIHHHHHHQEGRSDPLEGFNRTMFNFNYDVLDPYVVRPAAVAWRDYVPTPARNGLGNFFNNLEEPATMVNYFVEGKPYKAMIHFNRFFLNTLLGMGGLIDVASMANPKLAKEESRRFGSTLGNYGVGYGPYVVLPGYGSVTPREDGGGVADTLYPMLSYLTFWMSAGKWAIEGLETRAQLLDSDGLLRNSSDPYLMIREAYFQRHDFLASDGQIAPQQNPNAAAIEDSLDEIDSAK | not soluble
MSDITISRPEVVNGHTDVICSTSIRHILAVRKSTLLQIDTLIRQLAEISVLTESIGGKTAPDWAMKQDFRCGCWLMEKPETAMKAITRNLDREIWRDLMQRSGMLSLMDTQARDTWYRSLEYDNFPEISEANILSTFEQLHQNKDEVFERGVINVFRGLNWNYKTNCPCKFGSKIIVNNLVRWDRWGFHLITGQQADRLADLERMLHLFSGKPIPDNRGNITLRLDDHIQSVQGKESYEDEMFSIRYFKKGSAHITFRKPELVDRLNDIIAKHYPDMLAV | soluble
MGSDKIHHHHHHMPIHLIWGNDYEACNREIEELINSVIDSSWKSFNYSQLDGNDPKQNLRALEEAQSAPLGSGGRIVLVRRSPFCNGCSIELGNKLEQVIKLIPDKTHLILSNANKPDKRLKTTKLIEKSIQSNTLSQEKSFILPLPWDINGQRNLVKNNLERLNLKMNYETIDLIVESIGNDSSLINTELQKLSLFSEAVNTNLTTDKPREISKELVKKLIQNNSTNALEIANSLLKGEKIIALNKIQSLLKNGEPALRLITTLTGQSRGWLWVHLLDSQGNQDVKEIAKLAGIANPKRIFVIRKQIQGKSLGTLLELMKKLLKIEASIKSGIKPIDSFKDNLLTDSKILANN | not soluble
LQELSITNFAIIEHLDIAFEAGMTVLTGETGAGKSIIIDAVGLLAGGRGSAEFIRTGADKAVLQGMFILPADGVTAQLLDEAGIEHADNTVILQREITKSGRNTCRINGMLVNTTTLKQIGETIVDIHGQNEHQELMQPEKHLGLLDEFATA | not soluble
MGSDKIHHHHHHMLHQLTVLFKDHLSTDPTVYCTDKYTVYQLADGLRFGIENTILTPRELDLLNLLVERVVTSESDQIVTWRRRLEQPSSEEAHPFRMIHFLFEQLDVRTGEDLQQLLTSFFHPSSWIIPLTSNRLVVIEREDSVSENDLHDFFTALQSDFLMDGKVLIGQQRQSGDLAAQFRLEQAALRELPLLHIERFLPALMRLTLLSNEVRDDLIERFITPLERESRETIDAFCRANLNVSLTAKHLFLHRNSLQYRLDRLTEQTEIDIRSFEGAMFLYTLLLVA | not soluble
MSLSLPSSHFVLIAEEENNSYWRLVEKGAREAENQFDVLVEYKAPKRSNPEEQLKLIDMAISAKVDGIIVQAVNEEMFTPLINKAVDAGIPVITIDTDAPRSNRVAYIGTDNYYSGTIAGKAMLDDMEGDIHVAVITGSLESSHQKLRVQGFIDMISNEPRVTLVEVEASNISRLEAELKAHQLMEEHPHINAFYGTSALDGIGIVAAAEKLGLDDLYVIAFDTLPENLSLLEQEKIDAIVVQEPFEMGLKSVELLLDIREGQPYSMTNHTHTSIIRKPDLSLLQEHQRLGDEGHHHHHH | soluble
MWFFNKNLKVLAPCDGTIITLDEVEDEVFKERMLGDGFAINPKSNDFHAPVSGKLVTAFPTKHAFGIQTKSGVEILLHIGLDTVSLDGNGFESFVTQDQEVNAGDKLVTVDLKSVAKKVPSIKSPIIFTNNGGKTLEIVKMGEVKQGDVVAILK | soluble
MGSDKIHHHHHHVNYIKRAMENTFLRLAKEFPALLLTGPRQTGKTTMLQKLAAEEKIGRNYVTLDDLTERQMAKNDPKMFLQIHKPPVFIDEVQYAPELFSYIKIHIDRHHRPGDFWLTGSQVFKLMDGVQESLAGRVGLLHMSPMSQAESCGADTTPFILDLEQLTRRVRERNPLDTPALYERIFRGGMPALVSGQYTDHWALYSSYISTYLDRDVKEISGTINSLRFMDFITAAAALCGQMLNYKTIADAAGIDQLTAKGWLGILERLGIIFYLHPYANNMLKRMVTKPKLYFYDCGLVAYLTKWSDSATLMNGAMSGAILENFVVSEIIKSYQNYGREAFIYYYRDKDTKEIDILLEDSGKLYPMEIKKTATPQKQLTRVFNVIDKATLERGTGAVLCTTDRLSAFDSENLIIPIWGI | not soluble
MQRVAISTLGCKINQFESAAMTESLGREGFRVVPFDEDADIYVINTCTVTAKTDAESRRLIRRALRRNPAARVVVTGCYAQVAPDAVKDLPGVALVVGNSEKRSIGELLRDAAPAEKVMVSDISRERTAEGLRLESFAEHTRAFLQVQNGCDAFCSYCIVPYARGRSRSVSFSEALAGIRNFAAQGFREVVLTGIHLGAYGLDLAPPTNLLALLEASEAEKAVPRLRVGSVEPNELTDALVDFLARSETVCPHLHIPLQSGDDRVLERMGRRYTAAFFRERVERLVAVVPDIFIGCDVIAGFPGETDEEFQNTVRLIEELPVASLHVFPYSRREGTAAARMEGQVDGKVIRGRAEILREVGERKRRSFCERFVGRELAVLMQNRGRDGEAVGLSRNYLPVRVPGYAGEMNAEATVMVTEVTPDGVGGIIRGLEHHHHHH | soluble
